# Source: the supplement of paper PMC10065799, “High-throughput profiling of sequence recognition by tyrosine kinases and SH2 domains using bacterial peptide display” (eLife, 2023)
# Columns and labels:
# [1] = molecular target: c-Src SH2; experiment: SH2 binding enrichment of the phosphorylated peptide, bacterial display (enrichment ratio); higher = better substrate or ligand; peptides without Tyr show the background
# [2] = molecular target: Grb2 SH2 (UniProt P62993); experiment: as above
# [3] = molecular target: SHP2-C SH2; experiment: as above
# [4] = molecular target: EPHB1 (UniProt P54762); experiment: phosphorylation enrichment, bacterial display (enrichment ratio); higher = better substrate or ligand; peptides without Tyr show the background
# Sequence of EPHB1 (P54762 whole entry, looked up): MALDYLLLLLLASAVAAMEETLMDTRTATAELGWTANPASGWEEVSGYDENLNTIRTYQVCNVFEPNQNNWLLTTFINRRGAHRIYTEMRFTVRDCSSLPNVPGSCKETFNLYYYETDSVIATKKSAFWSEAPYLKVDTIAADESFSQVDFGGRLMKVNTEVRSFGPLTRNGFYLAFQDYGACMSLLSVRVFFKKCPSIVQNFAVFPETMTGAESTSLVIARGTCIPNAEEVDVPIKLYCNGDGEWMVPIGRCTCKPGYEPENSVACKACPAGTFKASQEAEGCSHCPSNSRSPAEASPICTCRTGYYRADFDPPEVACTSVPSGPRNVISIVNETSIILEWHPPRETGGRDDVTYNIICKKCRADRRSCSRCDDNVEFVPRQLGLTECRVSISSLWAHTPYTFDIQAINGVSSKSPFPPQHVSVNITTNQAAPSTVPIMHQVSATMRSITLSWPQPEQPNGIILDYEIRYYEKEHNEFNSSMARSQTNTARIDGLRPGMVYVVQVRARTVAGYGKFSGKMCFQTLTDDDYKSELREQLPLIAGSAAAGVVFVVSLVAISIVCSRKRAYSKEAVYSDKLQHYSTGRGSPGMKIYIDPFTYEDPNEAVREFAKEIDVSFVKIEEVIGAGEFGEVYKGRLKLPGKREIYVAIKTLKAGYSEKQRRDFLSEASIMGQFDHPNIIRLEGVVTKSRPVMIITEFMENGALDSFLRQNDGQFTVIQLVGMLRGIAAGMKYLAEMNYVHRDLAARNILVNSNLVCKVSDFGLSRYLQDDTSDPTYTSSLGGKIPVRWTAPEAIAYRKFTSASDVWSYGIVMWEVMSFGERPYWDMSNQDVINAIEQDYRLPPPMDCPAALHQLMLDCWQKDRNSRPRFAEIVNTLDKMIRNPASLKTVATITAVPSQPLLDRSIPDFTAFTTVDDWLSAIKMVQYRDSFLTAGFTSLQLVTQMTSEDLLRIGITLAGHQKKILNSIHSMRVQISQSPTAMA
# [5] = molecular target: Jak2 (UniProt O60674); experiment: as above
# [6] = system: c-Src; experiment: as above
# [7] = molecular target: MERTK (UniProt Q12866); experiment: as above
# Sequence of MERTK (Q12866 whole entry, looked up): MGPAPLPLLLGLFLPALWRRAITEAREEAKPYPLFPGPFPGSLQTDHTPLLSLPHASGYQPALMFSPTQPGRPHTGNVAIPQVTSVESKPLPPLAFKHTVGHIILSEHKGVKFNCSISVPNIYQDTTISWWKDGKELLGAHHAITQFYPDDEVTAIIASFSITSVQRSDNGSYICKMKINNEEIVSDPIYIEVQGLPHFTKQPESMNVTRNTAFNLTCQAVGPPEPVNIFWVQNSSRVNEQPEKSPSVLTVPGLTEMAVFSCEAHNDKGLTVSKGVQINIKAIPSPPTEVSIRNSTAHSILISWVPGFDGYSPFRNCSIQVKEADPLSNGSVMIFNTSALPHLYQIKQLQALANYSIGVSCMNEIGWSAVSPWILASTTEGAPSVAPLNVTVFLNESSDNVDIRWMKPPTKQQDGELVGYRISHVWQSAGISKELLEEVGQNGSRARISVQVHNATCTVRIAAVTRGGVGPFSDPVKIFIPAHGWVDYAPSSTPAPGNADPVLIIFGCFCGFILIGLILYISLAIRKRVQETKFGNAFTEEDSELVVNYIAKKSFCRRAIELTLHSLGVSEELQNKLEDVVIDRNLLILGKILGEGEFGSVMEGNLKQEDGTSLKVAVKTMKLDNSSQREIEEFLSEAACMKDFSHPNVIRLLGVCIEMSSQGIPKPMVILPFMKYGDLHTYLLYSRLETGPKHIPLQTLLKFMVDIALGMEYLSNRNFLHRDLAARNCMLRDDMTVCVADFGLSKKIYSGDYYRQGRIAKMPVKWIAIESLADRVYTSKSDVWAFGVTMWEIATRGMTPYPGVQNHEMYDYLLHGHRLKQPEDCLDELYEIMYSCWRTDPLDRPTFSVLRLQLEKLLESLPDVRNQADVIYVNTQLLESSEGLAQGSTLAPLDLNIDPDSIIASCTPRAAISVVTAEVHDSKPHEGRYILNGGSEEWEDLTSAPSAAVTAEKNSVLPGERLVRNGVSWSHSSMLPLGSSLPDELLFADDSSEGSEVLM
# [8] = molecular target: Fes (UniProt P07332); experiment: as above
# [9] = molecular target: Fyn (UniProt P06241); experiment: as above
# Sequence of Fyn (P06241 whole entry, looked up): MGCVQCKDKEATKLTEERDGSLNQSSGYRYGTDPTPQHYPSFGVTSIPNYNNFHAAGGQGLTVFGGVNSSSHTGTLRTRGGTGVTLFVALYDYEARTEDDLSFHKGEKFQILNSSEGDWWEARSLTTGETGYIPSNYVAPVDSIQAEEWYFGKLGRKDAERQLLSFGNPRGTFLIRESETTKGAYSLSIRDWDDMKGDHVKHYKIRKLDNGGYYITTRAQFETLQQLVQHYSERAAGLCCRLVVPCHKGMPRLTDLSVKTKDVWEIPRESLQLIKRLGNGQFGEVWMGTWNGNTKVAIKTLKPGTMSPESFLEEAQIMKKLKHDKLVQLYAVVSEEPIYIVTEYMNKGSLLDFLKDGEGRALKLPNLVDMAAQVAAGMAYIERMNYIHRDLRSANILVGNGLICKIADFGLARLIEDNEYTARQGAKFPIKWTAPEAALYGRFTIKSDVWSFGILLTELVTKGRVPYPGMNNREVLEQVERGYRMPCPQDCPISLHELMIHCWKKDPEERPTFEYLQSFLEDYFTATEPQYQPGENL
# [10] = molecular target: Hck (UniProt P08631); experiment: as above
# Sequence of Hck (P08631 whole entry, looked up): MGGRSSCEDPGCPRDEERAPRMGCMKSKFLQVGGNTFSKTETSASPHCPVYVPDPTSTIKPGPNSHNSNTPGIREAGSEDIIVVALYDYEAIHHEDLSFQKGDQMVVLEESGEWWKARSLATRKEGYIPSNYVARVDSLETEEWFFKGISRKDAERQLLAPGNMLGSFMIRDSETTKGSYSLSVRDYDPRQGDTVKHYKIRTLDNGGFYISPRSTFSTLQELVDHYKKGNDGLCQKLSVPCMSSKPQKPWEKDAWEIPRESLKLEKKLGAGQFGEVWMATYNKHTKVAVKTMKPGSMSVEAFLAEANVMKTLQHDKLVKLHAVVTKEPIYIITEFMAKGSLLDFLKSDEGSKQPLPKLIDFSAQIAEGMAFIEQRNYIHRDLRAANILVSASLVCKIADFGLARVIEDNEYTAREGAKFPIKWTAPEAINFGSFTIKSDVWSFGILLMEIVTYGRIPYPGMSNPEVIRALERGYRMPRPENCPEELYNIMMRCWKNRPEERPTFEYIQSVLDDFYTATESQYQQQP
# [11] = system: c-Abl (mouse); experiment: as above
# [12] = molecular target: FGFR3 (UniProt P22607); experiment: as above
# Sequence of FGFR3 (P22607 whole entry, looked up): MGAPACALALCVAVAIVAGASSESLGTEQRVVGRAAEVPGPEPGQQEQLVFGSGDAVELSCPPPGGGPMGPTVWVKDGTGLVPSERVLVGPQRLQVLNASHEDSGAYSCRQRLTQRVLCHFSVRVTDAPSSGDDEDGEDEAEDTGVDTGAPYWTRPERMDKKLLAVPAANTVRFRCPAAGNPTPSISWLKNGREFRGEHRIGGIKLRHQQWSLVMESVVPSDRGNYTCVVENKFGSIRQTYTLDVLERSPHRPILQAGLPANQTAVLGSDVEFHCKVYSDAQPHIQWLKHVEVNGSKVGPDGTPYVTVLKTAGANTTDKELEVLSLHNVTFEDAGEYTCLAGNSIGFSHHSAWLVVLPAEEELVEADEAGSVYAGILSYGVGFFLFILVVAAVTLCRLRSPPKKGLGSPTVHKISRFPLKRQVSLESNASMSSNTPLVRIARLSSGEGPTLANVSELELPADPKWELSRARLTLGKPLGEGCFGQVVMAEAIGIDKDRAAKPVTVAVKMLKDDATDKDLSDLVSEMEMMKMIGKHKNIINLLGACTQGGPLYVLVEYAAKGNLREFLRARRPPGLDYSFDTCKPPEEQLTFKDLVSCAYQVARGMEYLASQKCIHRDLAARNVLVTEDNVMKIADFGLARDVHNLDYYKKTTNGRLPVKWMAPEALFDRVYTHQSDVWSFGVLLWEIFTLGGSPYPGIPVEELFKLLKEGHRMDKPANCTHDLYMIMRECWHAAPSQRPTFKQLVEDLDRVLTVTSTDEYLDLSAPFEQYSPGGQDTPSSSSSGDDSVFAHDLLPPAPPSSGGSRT
# [13] = system: Fer (mouse); experiment: as above
# [14] = molecular target: EPHB2 (UniProt P29323); experiment: as above
# [15] = molecular target: FGFR1 (UniProt P11362); experiment: as above
# Sequence of FGFR1 (P11362 whole entry, looked up): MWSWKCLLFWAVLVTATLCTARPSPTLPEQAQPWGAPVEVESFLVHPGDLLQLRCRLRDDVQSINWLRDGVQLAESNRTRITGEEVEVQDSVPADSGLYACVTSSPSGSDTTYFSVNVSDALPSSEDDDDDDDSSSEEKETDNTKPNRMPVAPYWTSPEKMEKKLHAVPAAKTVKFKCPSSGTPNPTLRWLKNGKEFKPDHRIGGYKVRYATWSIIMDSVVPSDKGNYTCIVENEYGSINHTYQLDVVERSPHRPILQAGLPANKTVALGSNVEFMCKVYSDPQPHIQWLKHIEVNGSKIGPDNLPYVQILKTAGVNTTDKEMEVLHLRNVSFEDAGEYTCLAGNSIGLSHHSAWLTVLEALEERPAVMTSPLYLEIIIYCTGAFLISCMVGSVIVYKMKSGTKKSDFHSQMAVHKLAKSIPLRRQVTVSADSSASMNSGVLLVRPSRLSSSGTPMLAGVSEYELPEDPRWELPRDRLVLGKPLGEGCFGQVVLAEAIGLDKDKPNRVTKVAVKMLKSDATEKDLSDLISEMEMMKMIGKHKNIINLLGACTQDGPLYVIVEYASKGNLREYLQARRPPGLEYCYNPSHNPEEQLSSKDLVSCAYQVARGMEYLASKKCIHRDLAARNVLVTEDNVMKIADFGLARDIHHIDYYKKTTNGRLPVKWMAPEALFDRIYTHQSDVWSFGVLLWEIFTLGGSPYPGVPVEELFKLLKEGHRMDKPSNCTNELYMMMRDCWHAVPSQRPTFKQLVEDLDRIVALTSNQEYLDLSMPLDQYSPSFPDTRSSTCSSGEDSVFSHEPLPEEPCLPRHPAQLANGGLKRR
# [16] = system: AncSZ; experiment: as above
# 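Wherever SH2 binding enrichment of the phosphorylated peptide, bacterial display is given: peptide library displayed on the E. coli surface as eCPX fusions, selected cells deep-sequenced, score is each peptide's frequency after selection divided by its frequency in the input.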
# 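Wherever phosphorylation enrichment, bacterial display is given: 11-residue human phosphosite peptides and single-mutation variants displayed on the E. coli surface, counted by deep sequencing, each peptide's frequency after selection divided by its frequency in the unselected input library; frequency after pTyr selection over input frequency; kinase dosed for 20-30% of maximal phosphorylation in three min.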
# Sequence of Grb2 SH2 (P62993 whole entry, looked up): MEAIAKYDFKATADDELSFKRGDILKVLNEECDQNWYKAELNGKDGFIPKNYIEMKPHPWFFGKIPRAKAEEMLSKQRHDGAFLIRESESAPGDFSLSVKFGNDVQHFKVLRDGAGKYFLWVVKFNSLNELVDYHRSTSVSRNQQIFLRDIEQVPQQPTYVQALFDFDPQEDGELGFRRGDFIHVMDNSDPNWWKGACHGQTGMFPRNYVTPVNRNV
Sequence,SH2 binding enrichment [1],SH2 binding enrichment [2],SH2 binding enrichment [3],phosphorylation enrichment [4],phosphorylation enrichment [5],phosphorylation enrichment [6],phosphorylation enrichment [7],phosphorylation enrichment [8],phosphorylation enrichment [9],phosphorylation enrichment [10],phosphorylation enrichment [11],phosphorylation enrichment [12],phosphorylation enrichment [13],phosphorylation enrichment [14],phosphorylation enrichment [15],phosphorylation enrichment [16]
RLLVFYPWTQR [HBB_Y36_V35F],1.8,2.4,2.1,0.794,1.73,0.509,0.512,1.47,0.616,0.557,1.02,0.891,0.65,0.938,0.877,2.05
RLLVVYPSTQR [HBB_Y36_W38S],1.47,2.08,2.26,0.602,1.04,0.646,0.753,1.75,0.802,1.17,0.899,0.94,0.7,0.931,1.07,1.19
RLLVVYPWTQK [HBG1_Y36_R41K],1.76,2.31,2.19,0.581,0.63,0.388,0.32,0.926,0.508,0.547,0.617,0.69,0.468,0.529,0.473,0.842
RLLVVYTWTQR [HBB_Y36_P37T],1.01,1.68,1.55,0.656,1.08,0.509,0.694,2.12,0.739,0.915,0.862,0.941,0.842,1.12,0.661,1.81
RMDGTYACSYT [FLNB_Y704],0.923,1.17,1.02,0.876,0.92,3.25,0.757,1.02,1.87,1.74,1.47,0.579,0.617,0.85,0.538,0.934
RNIQQCNSFVS [PRKAR1A_Y373_Y373C],0.572,0.82,0.8,0.718,1.4,0.707,0.66,1.18,0.506,0.711,0.922,0.662,0.773,0.634,0.501,1.28
RNLDTYQKRLR [PLA2G2D_Y126],0.629,0.918,0.504,0.831,0.661,0.463,0.474,0.61,0.452,0.55,0.762,0.484,0.307,0.279,0.373,0.617
RPGSGYTKIMR [PKLR_Y564_N566K],2.98,0.999,1.69,0.415,0.41,0.348,0.48,0.525,0.404,0.409,0.396,0.368,0.42,0.303,0.372,0.546
RQLEIYRASRP [ERCC4_Y594],0.402,0.623,0.49,0.388,0.535,0.408,0.391,0.673,0.426,0.316,0.727,0.389,0.427,0.254,0.312,0.663
RQNQEYEILMD [KRT39_Y379_L383M],0.835,0.843,0.556,1.79,1.66,0.861,0.503,1.45,0.815,0.695,0.994,0.847,0.705,1.58,0.698,1.53
RQNRFYDAKVR [FKBP6_Y188],0.441,1.02,0.675,0.226,0.81,1.18,0.672,0.715,0.427,0.606,0.658,0.496,0.605,0.432,0.506,0.687
RQSRNYLGGFA [SYK_Y47],0.407,0.612,0.519,0.316,0.436,0.69,1.75,0.562,0.597,0.483,0.684,0.386,0.404,0.56,0.329,0.841
RRAKGYPINLY [ITGB2_Y125_D128N],0.484,0.764,0.55,0.707,0.693,0.7,0.623,0.932,0.963,0.912,0.535,0.605,0.656,0.853,0.814,0.762
RRESPYGGGGG [FUS_Y526_R524S],0.566,0.907,0.362,0.46,0.74,0.519,0.501,0.611,0.451,0.596,0.569,0.414,0.436,0.546,0.402,0.636
